In patent publication US20030108916:

Key:
[1] = target: GST-Xchk1(306-352) S344A+T314A (UniProt Q6DE87)
GST-Xchk1(347-374) S365A = GST-Xchk1(347-374) S365A (UniProt Q6DE87)
GST-Xchk1(347-374) S356A = GST-Xchk1(347-374) S356A (UniProt Q6DE87)
[2] = target: GST-Xchk1(306-352), wild type peptide fragment (UniProt Q6DE87)
GST-Xchk1(306-352) T314A = GST-Xchk1(306-352) T314A (UniProt Q6DE87)
[3] = target: GST-Xchk1-N135A-4AQ (bacterially expressed) (UniProt Q6DE87)
[4] = target: GST-Xchk1(347-374), wildtype peptide fragment (UniProt Q6DE87)
Sequence of GST-Xchk1(347-374), wildtype peptide fragment (Q6DE87 347-374): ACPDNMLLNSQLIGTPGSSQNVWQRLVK

[5] = target: GST-Xchk1(347-374) S365A+S356A (UniProt Q6DE87)
Sequence of GST-Xchk1(347-374) S365A+S356A (Q6DE87 whole entry S356A/S365A, looked up, tested part not stated): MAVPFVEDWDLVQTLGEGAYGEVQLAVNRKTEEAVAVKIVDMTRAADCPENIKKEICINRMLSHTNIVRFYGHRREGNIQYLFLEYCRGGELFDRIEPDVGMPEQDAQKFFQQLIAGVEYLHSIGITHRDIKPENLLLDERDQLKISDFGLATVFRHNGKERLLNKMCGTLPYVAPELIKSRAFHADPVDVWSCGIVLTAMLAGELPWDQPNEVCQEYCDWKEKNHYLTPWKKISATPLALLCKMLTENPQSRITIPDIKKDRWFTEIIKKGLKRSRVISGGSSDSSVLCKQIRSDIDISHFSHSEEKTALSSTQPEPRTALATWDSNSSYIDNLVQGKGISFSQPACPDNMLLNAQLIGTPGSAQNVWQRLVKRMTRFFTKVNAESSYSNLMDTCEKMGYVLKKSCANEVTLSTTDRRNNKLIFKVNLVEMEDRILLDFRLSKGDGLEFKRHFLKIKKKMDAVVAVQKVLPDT

[6] = tested on: PHAS-I (model substrate protein)
GST-Xchk1(306-352) S344A = GST-Xchk1(306-352) S344A (UniProt Q6DE87)
Sequence of GST-Xchk1(306-352) S344A (Q6DE87 whole entry S344A, looked up, tested part not stated): as the sequence (Q6DE87 whole entry S356A/S365A, looked up, tested part not stated) above, with S344A, A356S, A365S counted along it

[7] = target: GST-Xchk1-N135A (kinase inactive Xchk1 mutant, bacterially expressed) (UniProt Q6DE87)
Sequence of GST-Xchk1-N135A (kinase inactive Xchk1 mutant, bacterially expressed) (Q6DE87 whole entry N135A, looked up): as the sequence (Q6DE87 whole entry S356A/S365A, looked up, tested part not stated) above, with N135A, A356S, A365S counted along it

Sequence of Xenopus laevis ATR (Xatr), endogenous protein in Xenopus egg extracts (chain, as listed by the source): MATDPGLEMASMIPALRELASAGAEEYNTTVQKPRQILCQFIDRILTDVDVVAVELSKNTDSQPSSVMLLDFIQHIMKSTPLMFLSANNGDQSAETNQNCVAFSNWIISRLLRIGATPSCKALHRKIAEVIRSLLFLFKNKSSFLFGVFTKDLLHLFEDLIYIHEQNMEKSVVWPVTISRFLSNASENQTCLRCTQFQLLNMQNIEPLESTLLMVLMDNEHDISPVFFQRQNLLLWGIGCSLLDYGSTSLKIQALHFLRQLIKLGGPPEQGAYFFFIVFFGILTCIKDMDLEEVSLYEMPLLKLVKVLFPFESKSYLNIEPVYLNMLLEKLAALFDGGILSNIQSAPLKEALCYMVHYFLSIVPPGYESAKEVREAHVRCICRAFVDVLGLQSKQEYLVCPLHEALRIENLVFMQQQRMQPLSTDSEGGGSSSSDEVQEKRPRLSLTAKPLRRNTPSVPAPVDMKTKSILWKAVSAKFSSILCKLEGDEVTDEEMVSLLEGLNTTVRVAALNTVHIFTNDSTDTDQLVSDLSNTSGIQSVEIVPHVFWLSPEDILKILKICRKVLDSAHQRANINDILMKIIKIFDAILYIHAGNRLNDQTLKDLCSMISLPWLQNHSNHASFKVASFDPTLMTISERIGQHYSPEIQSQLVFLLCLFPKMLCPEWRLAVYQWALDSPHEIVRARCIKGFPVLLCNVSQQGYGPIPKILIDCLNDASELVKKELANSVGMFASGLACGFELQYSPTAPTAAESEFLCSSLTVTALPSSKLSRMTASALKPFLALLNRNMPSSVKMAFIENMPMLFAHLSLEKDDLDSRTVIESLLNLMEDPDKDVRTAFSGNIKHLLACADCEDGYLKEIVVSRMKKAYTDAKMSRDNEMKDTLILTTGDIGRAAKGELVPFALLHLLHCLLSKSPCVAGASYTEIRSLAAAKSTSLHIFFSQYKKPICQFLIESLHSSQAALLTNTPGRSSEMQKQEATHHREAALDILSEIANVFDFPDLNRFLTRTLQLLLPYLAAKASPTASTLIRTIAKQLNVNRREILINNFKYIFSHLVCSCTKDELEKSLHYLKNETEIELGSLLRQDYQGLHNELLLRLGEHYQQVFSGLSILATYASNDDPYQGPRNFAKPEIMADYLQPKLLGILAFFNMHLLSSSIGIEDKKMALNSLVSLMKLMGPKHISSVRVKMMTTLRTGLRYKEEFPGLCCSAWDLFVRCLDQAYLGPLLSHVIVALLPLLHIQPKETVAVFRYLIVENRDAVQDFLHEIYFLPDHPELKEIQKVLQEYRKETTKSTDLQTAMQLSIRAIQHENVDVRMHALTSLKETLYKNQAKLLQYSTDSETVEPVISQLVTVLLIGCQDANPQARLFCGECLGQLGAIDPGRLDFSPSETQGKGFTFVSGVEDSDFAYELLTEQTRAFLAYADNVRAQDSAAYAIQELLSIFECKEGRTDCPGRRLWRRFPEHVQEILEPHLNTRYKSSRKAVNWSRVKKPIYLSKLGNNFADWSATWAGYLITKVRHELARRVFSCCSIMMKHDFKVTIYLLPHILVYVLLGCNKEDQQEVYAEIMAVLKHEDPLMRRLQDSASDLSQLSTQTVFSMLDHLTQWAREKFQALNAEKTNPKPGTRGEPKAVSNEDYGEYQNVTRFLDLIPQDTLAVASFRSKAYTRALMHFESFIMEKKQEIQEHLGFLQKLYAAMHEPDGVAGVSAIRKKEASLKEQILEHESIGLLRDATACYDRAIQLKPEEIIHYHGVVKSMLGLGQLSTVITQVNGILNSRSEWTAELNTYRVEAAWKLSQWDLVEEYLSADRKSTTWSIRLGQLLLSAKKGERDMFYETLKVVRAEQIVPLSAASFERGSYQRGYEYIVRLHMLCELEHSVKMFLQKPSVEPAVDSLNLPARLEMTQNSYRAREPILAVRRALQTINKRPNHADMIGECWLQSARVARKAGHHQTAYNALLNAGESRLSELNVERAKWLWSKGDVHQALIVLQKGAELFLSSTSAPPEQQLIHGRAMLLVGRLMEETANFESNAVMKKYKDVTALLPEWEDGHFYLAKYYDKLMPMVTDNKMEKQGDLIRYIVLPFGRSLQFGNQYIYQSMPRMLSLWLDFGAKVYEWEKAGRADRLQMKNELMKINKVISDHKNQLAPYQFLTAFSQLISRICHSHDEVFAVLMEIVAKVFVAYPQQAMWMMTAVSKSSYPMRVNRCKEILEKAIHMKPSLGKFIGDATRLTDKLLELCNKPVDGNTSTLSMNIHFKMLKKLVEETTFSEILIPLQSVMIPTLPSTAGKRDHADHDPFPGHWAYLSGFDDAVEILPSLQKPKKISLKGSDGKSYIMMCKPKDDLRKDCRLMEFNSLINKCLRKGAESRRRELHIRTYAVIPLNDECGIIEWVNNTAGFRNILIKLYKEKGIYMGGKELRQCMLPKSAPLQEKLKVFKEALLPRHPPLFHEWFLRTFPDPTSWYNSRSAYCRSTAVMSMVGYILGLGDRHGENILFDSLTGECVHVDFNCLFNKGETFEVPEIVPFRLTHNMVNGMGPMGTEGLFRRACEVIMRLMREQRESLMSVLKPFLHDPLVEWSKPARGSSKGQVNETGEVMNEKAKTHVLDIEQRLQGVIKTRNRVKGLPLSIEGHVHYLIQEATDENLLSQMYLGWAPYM
Sequence of GST-Xchk1(347-374) S356A (Q6DE87 whole entry S356A, looked up, the tested form may be a part): as the sequence (Q6DE87 whole entry S356A/S365A, looked up, tested part not stated) above, with A365S counted along it
Sequence of GST-Xchk1(347-374) S365A (Q6DE87 whole entry S365A, looked up, tested part not stated): as the sequence (Q6DE87 whole entry S356A/S365A, looked up, tested part not stated) above, with A356S counted along it
Sequence of GST-Xchk1(306-352) T314A (Q6DE87 whole entry T314A, looked up, tested part not stated): as the sequence (Q6DE87 whole entry S356A/S365A, looked up, tested part not stated) above, with T314A, A356S, A365S counted along it
Sequence of GST-Xchk1(306-352) S344A+T314A (Q6DE87 whole entry T314A/S344A, looked up, tested part not stated): as the sequence (Q6DE87 whole entry S356A/S365A, looked up, tested part not stated) above, with T314A, S344A, A356S, A365S counted along it
Sequence of GST-Xchk1(306-352), wild type peptide fragment (Q6DE87 306-352): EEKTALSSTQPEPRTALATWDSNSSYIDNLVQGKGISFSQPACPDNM
Sequence of GST-Xchk1-N135A-4AQ (bacterially expressed) (Q6DE87 whole entry N135A, looked up, the tested form may be a part): as the sequence (Q6DE87 whole entry S356A/S365A, looked up, tested part not stated) above, with N135A, A356S, A365S counted along it

Substance | in vitro phosphorylation of Xchk1 peptides [1] | in vitro phosphorylation of Xchk1 peptides (GST-Xchk1(347-374) S365A) | in vitro phosphorylation of Xchk1 peptides (GST-Xchk1(347-374) S356A) | in vitro phosphorylation of Xchk1 peptides [2] | in vitro phosphorylation of Xchk1 peptides (GST-Xchk1(306-352) T314A) | in vitro phosphorylation (32P-ATP, autoradiography) [3] | in vitro phosphorylation of Xchk1 peptides [4] | in vitro phosphorylation of Xchk1 peptides [5] | phosphorylation of PHAS-I (in vitro kinase assay, autoradiography) [6] | in vitro phosphorylation of Xchk1 peptides (GST-Xchk1(306-352) S344A) | in vitro phosphorylation (32P-ATP, autoradiography) [7]
Xenopus laevis ATR (Xatr), endogenous protein in Xenopus egg extracts | mutation of both sites within each peptide (S365A+S356A or S344A+T314A) abolished phosphorylation by Xatr (lanes 4 and 8) | Xatr phosphorylated Xchk1 when a single SQ or TQ site is mutated although the level of phosphorylation is significantly reduced in comparison to that observed with wildtype peptide | Xatr phosphorylated Xchk1 when a single SQ or TQ site is mutated although the level of phosphorylation is significantly reduced in comparison to that observed with wildtype peptide | Xatr phosphorylated both of the wildtype peptide fragments (lanes 1 and 5-top panel) | Xatr phosphorylated Xchk1 when a single SQ or TQ site is mutated although the level of phosphorylation is significantly reduced in comparison to that observed with wildtype peptide | the resulting mutant (GST-Xchk1-N135A-4AQ) was not phosphorylated by Xatr (lane 4) | Xatr phosphorylated both of the wildtype peptide fragments (lanes 1 and 5-top panel) | mutation of both sites within each peptide (S365A+S356A or S344A+T314A) abolished phosphorylation by Xatr (lanes 4 and 8) | these immunoprecipitates phosphorylated a model substrate protein (PHAS-I) in vitro | Xatr phosphorylated Xchk1 when a single SQ or TQ site is mutated although the level of phosphorylation is significantly reduced in comparison to that observed with wildtype peptide | Xatr phosphorylates Xchk1 in vitro (compare lane 5 to lane 6)
Wildtype human Flag-tagged ATR isolated from 293T cells | human ATR does not phosphorylate the double mutant XChk1 substrates (S365A+S356A or S344A+T314A-as shown in lanes 4 and 12) | human ATR phosphorylated each of the single point mutant Chk1 substrates (S365A, S356A, S344A and T314A); the level of phosphorylation of the single mutant forms of Xchk1 by human ATR is also reduced | human ATR phosphorylated each of the single point mutant Chk1 substrates (S365A, S356A, S344A and T314A); the level of phosphorylation of the single mutant forms of Xchk1 by human ATR is also reduced | Wildtype human ATR phosphorylated the wildtype XChk1 peptides Xchk1 (306-352) and Xchk1(347-374) | human ATR phosphorylated each of the single point mutant Chk1 substrates (S365A, S356A, S344A and T314A); the level of phosphorylation of the single mutant forms of Xchk1 by human ATR is also reduced |  | Wildtype human ATR phosphorylated the wildtype XChk1 peptides Xchk1 (306-352) and Xchk1(347-374) | human ATR does not phosphorylate the double mutant XChk1 substrates (S365A+S356A or S344A+T314A-as shown in lanes 4 and 12) |  | human ATR phosphorylated each of the single point mutant Chk1 substrates (S365A, S356A, S344A and T314A); the level of phosphorylation of the single mutant forms of Xchk1 by human ATR is also reduced | 
